Reference: patent US20070265350A1 (UNIVERSITY OF IOWA RESEARCH FOUNDATION, published 2007)

Biological target: T1, His-Cdc42 (UniProt P60953 1-191, limits assumed)
T1 construct: Bought protein; also called His-tagged Cdc42; Cdc42-GTPγS; not shown: His tag
Assay: in vitro pull-down of immobilized His-Cdc42 (nucleotide analogs as indicated) with purified bovine SOD1, Western blot (FIG. 1B)
Procedure: Pull-down assays with GST- and His-tagged proteins. Dynabeads talon for histidine tagged proteins were washed with potassium phosphate buffer (PPHB) containing 100 mM KH₂PO₄, 10 mM NaCl, 0.25 mM MgCl₂ and 100 nM CaCl₂. […] The GTPases were either used directly or preloaded with either GTPγS or GDPβS and then washed. […] Samples were incubated at room temperature (RT) for 30 minutes with intermittent gentle agitation. […] The fourth wash was carried out in 50 mM Tris pH 6.8. Proteins were eluted using 20 μl 125 mM imidazole and samples were then mixed with SDS-PAGE reducing loading buffer and separated by SDS-PAGE for Western blotting.

T1 sequence (P60953 whole entry): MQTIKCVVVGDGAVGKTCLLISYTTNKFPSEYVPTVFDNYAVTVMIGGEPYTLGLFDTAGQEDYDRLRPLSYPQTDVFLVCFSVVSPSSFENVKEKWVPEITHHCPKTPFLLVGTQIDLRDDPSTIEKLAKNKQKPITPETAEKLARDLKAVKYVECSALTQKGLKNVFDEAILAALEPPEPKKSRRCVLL

binding result: no binding
B1: Bovine copper/zinc superoxide dismutase (SOD1), native (enzyme)
chain: not shown
notes: Native, metalated enzyme as bought; also called bovine SOD1; Bov.SOD1
